What all share (assay): SPR (Biacore), FcγR over captured antibody; binding amount divided by that of IL6R-BF648/IL6R-L x 100
A general note: In SPR one partner is held on a chip, and binding of the other changes the refractive index at the surface.

One test has as its target T1, human FcγRIIa type R (human, UniProt P12318 36-217).
T1 construct: also called FcgRIIaR; FcγRIIa(R)
T1 chain: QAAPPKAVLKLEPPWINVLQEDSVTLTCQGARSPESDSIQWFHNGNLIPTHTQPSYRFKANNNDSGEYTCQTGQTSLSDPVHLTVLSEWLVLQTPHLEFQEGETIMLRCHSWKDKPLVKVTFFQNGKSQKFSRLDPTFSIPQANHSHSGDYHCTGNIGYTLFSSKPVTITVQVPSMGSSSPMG

The next test addresses T2, human FcγRIIIa type V (human, UniProt P08637 17-208, limits assumed).
T2 construct: also called FcgRIIIaV; FcγRIIIa(V)

A further test addresses T3, human FcγRIIa type H (human, UniProt P12318 36-217).
T3 construct: also called FcgRIIaH; FcγRIIa(H)
T3 sequence: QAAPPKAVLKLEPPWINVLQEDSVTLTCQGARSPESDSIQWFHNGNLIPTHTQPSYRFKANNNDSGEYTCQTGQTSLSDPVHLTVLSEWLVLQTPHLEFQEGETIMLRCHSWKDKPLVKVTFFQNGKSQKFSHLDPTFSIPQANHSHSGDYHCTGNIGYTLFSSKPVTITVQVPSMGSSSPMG

The target of another test is T4, human FcγRIIb (human, UniProt P31994 43-217, limits assumed).
T4 construct: also called FcgRIIb; FcγIIB
T4 sequence: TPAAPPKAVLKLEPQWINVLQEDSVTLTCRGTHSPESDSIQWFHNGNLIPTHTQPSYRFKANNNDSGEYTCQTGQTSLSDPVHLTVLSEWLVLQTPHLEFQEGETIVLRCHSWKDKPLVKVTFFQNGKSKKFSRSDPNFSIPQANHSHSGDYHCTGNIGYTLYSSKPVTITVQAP

For another test, the target named is T5, human FcγRIa (human, UniProt P12314 16-292, limits assumed).
T5 construct: also called FcgRIa; FcγRI (CD64)
T5 sequence (P12314 16-292 limits assumed): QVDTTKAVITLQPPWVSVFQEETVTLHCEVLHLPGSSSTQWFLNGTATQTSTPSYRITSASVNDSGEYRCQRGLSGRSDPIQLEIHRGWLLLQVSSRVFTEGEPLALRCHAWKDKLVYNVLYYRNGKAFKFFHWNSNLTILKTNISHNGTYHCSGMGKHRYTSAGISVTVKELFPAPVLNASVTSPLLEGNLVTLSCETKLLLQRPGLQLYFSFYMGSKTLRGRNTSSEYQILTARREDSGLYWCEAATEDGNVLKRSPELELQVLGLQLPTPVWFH

T2 sequence (P08637 other isoform, or with tags, fused parts or gaps limits assumed): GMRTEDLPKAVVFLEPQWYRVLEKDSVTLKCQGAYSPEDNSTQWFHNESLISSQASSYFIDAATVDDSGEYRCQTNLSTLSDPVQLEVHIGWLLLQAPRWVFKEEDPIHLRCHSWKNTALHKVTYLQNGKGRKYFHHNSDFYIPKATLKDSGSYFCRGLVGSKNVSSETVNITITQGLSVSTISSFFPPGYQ
Method for human FcγRIIIa type V: (§1) According to the following method, relative binding activities were calculated for the results of analyzing interactions with the respective FcγRs.
Method for human FcγRIIa type H: as §1
Method for human FcγRIIa type R: as §1
Method for human FcγRIIb: as §1
Method for human FcγRIa: as §1

B1: IL6R-BP086/IL6R-L (antibody, human IgG1, name in EU numbering)
heavy: QVQLQESGPGLVKPSETLSLTCAVSGHSISHDHAWSWVRQPPGEGLEWIGFISYSGITNYNPSLQGRVTISRDNSKNTLYLQMNSLRAEDTAVYYCARSLARTTAMDYWGEGTLVTVSSASTKGPSVFPLAPSSKSTSGGTAALGCLVKDYFPEPVTVSWNSGALTSGVHTFPAVLQSSGLYSLSSVVTVPSSSLGTQTYICNVNHKPSNTKVDKKVEPKSCDKTHTCPPCPAPELLGGDSVFLFPPKPKDTLMISRTPEVTCVVVDVSHEDPEVKFNWYVDGVEVHNAKTKPREEQYNSTYRVVSVLTVLHQDWLNGKEYKCKVSNAALPKPIEKTISKAKGQPREPQVYTLPPSRDELTKNQVSLTCLVKGFYPSDIAVEWESNGQPENNYKTTPPVLDSDGSFFLYSKLTVDKSRWQQGNVFSCSVMHEALHNHYTQESLSLSP
light: DIQMTQSPSSLSASVGDRVTITCRASQDISSYLNWYQQKPGKAPKLLIYYTSRLHSGVPSRFSGSGSGTDFTFTISSLQPEDIATYYCQQGNTLPYTFGQGTKVEIK
notes: copies: 2 + 2
As for B1, the relative binding activity with human FcγRIIa type R was 155 relative (IL6R-BF648/IL6R-L = 100); with human FcγRIIIa type V it was 123 relative (IL6R-BF648/IL6R-L = 100); with human FcγRIIa type H, 116 relative (IL6R-BF648/IL6R-L = 100); in the test with human FcγRIIb, 137 relative (IL6R-BF648/IL6R-L = 100); with human FcγRIa, 72 relative (IL6R-BF648/IL6R-L = 100).

B2: IL6R-BP089/IL6R-L (antibody, human IgG1, name in EU numbering)
heavy: QVQLQESGPGLVKPSETLSLTCAVSGHSISHDHAWSWVRQPPGEGLEWIGFISYSGITNYNPSLQGRVTISRDNSKNTLYLQMNSLRAEDTAVYYCARSLARTTAMDYWGEGTLVTVSSASTKGPSVFPLAPSSKSTSGGTAALGCLVKDYFPEPVTVSWNSGALTSGVHTFPAVLQSSGLYSLSSVVTVPSSSLGTQTYICNVNHKPSNTKVDKKVEPKSCDKTHTCPPCPAPEYLGGDSVFLFPPKPKDTLMISRTPEVTCVVVDVSHEDPEVKFNWYVDGVEVHNAKTKPREEQYNSTYRVVSVLTVLHQDWLNGKEYKCKVSNAALPKPIEKTISKAKGQPREPQVYTLPPSRDELTKNQVSLTCLVKGFYPSDIAVEWESNGQPENNYKTTPPVLDSDGSFFLYSKLTVDKSRWQQGNVFSCSVMHEALHNHYTQESLSLSP
light: DIQMTQSPSSLSASVGDRVTITCRASQDISSYLNWYQQKPGKAPKLLIYYTSRLHSGVPSRFSGSGSGTDFTFTISSLQPEDIATYYCQQGNTLPYTFGQGTKVEIK
notes: copies: 2 + 2
As to B2, the relative binding activity was 222 relative (IL6R-BF648/IL6R-L = 100) in the test with human FcγRIIa type R; 136 relative (IL6R-BF648/IL6R-L = 100) in the test with human FcγRIIIa type V; 186 relative (IL6R-BF648/IL6R-L = 100) with human FcγRIIa type H; 147 relative (IL6R-BF648/IL6R-L = 100) with human FcγRIIb; 43 relative (IL6R-BF648/IL6R-L = 100) in the test with human FcγRIa.

B3: IL6R-BP143/IL6R-L (antibody, human IgG1, name in EU numbering)
heavy: QVQLQESGPGLVKPSETLSLTCAVSGHSISHDHAWSWVRQPPGEGLEWIGFISYSGITNYNPSLQGRVTISRDNSKNTLYLQMNSLRAEDTAVYYCARSLARTTAMDYWGEGTLVTVSSASTKGPSVFPLAPSSKSTSGGTAALGCLVKDYFPEPVTVSWNSGALTSGVHTFPAVLQSSGLYSLSSVVTVPSSSLGTQTYICNVNHKPSNTKVDKKVEPKSCDKTHTCPPCPAPEYLGGDSVFLFPPKPKDTLMISRTPEVTCVVVDVSHEDPEVKFNWYVDGVEVHNAKTKPREEQYNSTYRVVSVLTVLHQDWLNGKEYKCKVSNAALPAPIEKTISKAKGQPREPQVYTLPPSRDELTKNQVSLTCLVKGFYPSDIAVEWESNGQPENNYKTTPPVLDSDGSFFLYSKLTVDKSRWQQGNVFSCSVMHEALHNHYTQESLSLSP
light: DIQMTQSPSSLSASVGDRVTITCRASQDISSYLNWYQQKPGKAPKLLIYYTSRLHSGVPSRFSGSGSGTDFTFTISSLQPEDIATYYCQQGNTLPYTFGQGTKVEIK
notes: copies: 2 + 2
Turning to B3, the relative binding activity is 238 relative (IL6R-BF648/IL6R-L = 100) with human FcγRIIa type R; 114 relative (IL6R-BF648/IL6R-L = 100) with human FcγRIIIa type V; 143 relative (IL6R-BF648/IL6R-L = 100) with human FcγRIIa type H; 133 relative (IL6R-BF648/IL6R-L = 100) with human FcγRIIb; 86 relative (IL6R-BF648/IL6R-L = 100) with human FcγRIa.

B4: IL6R-BP088/IL6R-L (antibody, human IgG1, name in EU numbering)
heavy: QVQLQESGPGLVKPSETLSLTCAVSGHSISHDHAWSWVRQPPGEGLEWIGFISYSGITNYNPSLQGRVTISRDNSKNTLYLQMNSLRAEDTAVYYCARSLARTTAMDYWGEGTLVTVSSASTKGPSVFPLAPSSKSTSGGTAALGCLVKDYFPEPVTVSWNSGALTSGVHTFPAVLQSSGLYSLSSVVTVPSSSLGTQTYICNVNHKPSNTKVDKKVEPKSCDKTHTCPPCPAPELLGDDSVFLFPPKPKDTLMISRTPEVTCVVVDVSHEDPEVKFNWYVDGVEVHNAKTKPREEQYNSTYRVVSVLTVLHQDWLNGKEYKCKVSNAALPKPIEKTISKAKGQPREPQVYTLPPSRDELTKNQVSLTCLVKGFYPSDIAVEWESNGQPENNYKTTPPVLDSDGSFFLYSKLTVDKSRWQQGNVFSCSVMHEALHNHYTQESLSLSP
light: DIQMTQSPSSLSASVGDRVTITCRASQDISSYLNWYQQKPGKAPKLLIYYTSRLHSGVPSRFSGSGSGTDFTFTISSLQPEDIATYYCQQGNTLPYTFGQGTKVEIK
notes: copies: 2 + 2
As to B4, the relative binding activity with human FcγRIIa type R is 377 relative (IL6R-BF648/IL6R-L = 100); in the test with human FcγRIIIa type V, 122 relative (IL6R-BF648/IL6R-L = 100); in the test with human FcγRIIa type H it was 166 relative (IL6R-BF648/IL6R-L = 100); with human FcγRIIb, 161 relative (IL6R-BF648/IL6R-L = 100); with human FcγRIa, 25 relative (IL6R-BF648/IL6R-L = 100).

B5: IL6R-BP087/IL6R-L (antibody, human IgG1, name in EU numbering)
heavy: QVQLQESGPGLVKPSETLSLTCAVSGHSISHDHAWSWVRQPPGEGLEWIGFISYSGITNYNPSLQGRVTISRDNSKNTLYLQMNSLRAEDTAVYYCARSLARTTAMDYWGEGTLVTVSSASTKGPSVFPLAPSSKSTSGGTAALGCLVKDYFPEPVTVSWNSGALTSGVHTFPAVLQSSGLYSLSSVVTVPSSSLGTQTYICNVNHKPSNTKVDKKVEPKSCDKTHTCPPCPAPEYLGGDSVFLFPPKPKDTLMISRTPEVTCVVVDVSHEDPEVKFNWYVDGVEVHNAKTKPREEQYNSTYRVVSVLTVLHQDWLNGKEYKCKVSNKALPKPIEKTISKAKGQPREPQVYTLPPSRDELTKNQVSLTCLVKGFYPSDIAVEWESNGQPENNYKTTPPVLDSDGSFFLYSKLTVDKSRWQQGNVFSCSVMHEALHNHYTQESLSLSP
light: DIQMTQSPSSLSASVGDRVTITCRASQDISSYLNWYQQKPGKAPKLLIYYTSRLHSGVPSRFSGSGSGTDFTFTISSLQPEDIATYYCQQGNTLPYTFGQGTKVEIK
notes: copies: 2 + 2
Take B5: the relative binding activity with human FcγRIIa type R is 163 relative (IL6R-BF648/IL6R-L = 100); in the test with human FcγRIIIa type V, 158 relative (IL6R-BF648/IL6R-L = 100); with human FcγRIIa type H, 179 relative (IL6R-BF648/IL6R-L = 100); with human FcγRIIb, 137 relative (IL6R-BF648/IL6R-L = 100); in the test with human FcγRIa, 33 relative (IL6R-BF648/IL6R-L = 100).

B6: IL6R-BP129/IL6R-L (antibody, human IgG1, name in EU numbering)
heavy: QVQLQESGPGLVKPSETLSLTCAVSGHSISHDHAWSWVRQPPGEGLEWIGFISYSGITNYNPSLQGRVTISRDNSKNTLYLQMNSLRAEDTAVYYCARSLARTTAMDYWGEGTLVTVSSASTKGPSVFPLAPSSKSTSGGTAALGCLVKDYFPEPVTVSWNSGALTSGVHTFPAVLQSSGLYSLSSVVTVPSSSLGTQTYICNVNHKPSNTKVDKKVEPKSCDKTHTCPPCPAPDLLGGDSVFLFPPKPKDTLMISRTPEVTCVVVDVSHEDPEVKFNWYVDGVEVHNAKTKPREEQDNSTYRVVSVLTVLHQDWLNGKEYKCKVSNKALPKPIEKTISKAKGQPREPQVYTLPPSRDELTKNQVSLTCLVKGFYPSDIAVEWESNGQPENNYKTTPPVLDSDGSFFLYSKLTVDKSRWQQGNVFSCSVMHEALHNHYTQESLSLSP
light: DIQMTQSPSSLSASVGDRVTITCRASQDISSYLNWYQQKPGKAPKLLIYYTSRLHSGVPSRFSGSGSGTDFTFTISSLQPEDIATYYCQQGNTLPYTFGQGTKVEIK
notes: copies: 2 + 2
Take B6: the relative binding activity is 111 relative (IL6R-BF648/IL6R-L = 100) in the test with human FcγRIIa type R; 95 relative (IL6R-BF648/IL6R-L = 100) with human FcγRIIIa type V; 98 relative (IL6R-BF648/IL6R-L = 100) with human FcγRIIa type H; 138 relative (IL6R-BF648/IL6R-L = 100) with human FcγRIIb; 68 relative (IL6R-BF648/IL6R-L = 100) with human FcγRIa.

B7: IL6R-BP133/IL6R-L (antibody, human IgG1, name in EU numbering)
heavy: QVQLQESGPGLVKPSETLSLTCAVSGHSISHDHAWSWVRQPPGEGLEWIGFISYSGITNYNPSLQGRVTISRDNSKNTLYLQMNSLRAEDTAVYYCARSLARTTAMDYWGEGTLVTVSSASTKGPSVFPLAPSSKSTSGGTAALGCLVKDYFPEPVTVSWNSGALTSGVHTFPAVLQSSGLYSLSSVVTVPSSSLGTQTYICNVNHKPSNTKVDKKVEPKSCDKTHTCPPCPAPDYLGGDSVFLFPPKPKDTLMISRTPEVTCVVVDVSHEDPEVKFNWYVDGVEVHNAKTKPREEQYNSTYRVVSVLTVLHQDWLNGKEYKCKVSNKALPKPIEKTISKAKGQPREPQVYTLPPSRDELTKNQVSLTCLVKGFYPSDIAVEWESNGQPENNYKTTPPVLDSDGSFFLYSKLTVDKSRWQQGNVFSCSVMHEALHNHYTQESLSLSP
light: DIQMTQSPSSLSASVGDRVTITCRASQDISSYLNWYQQKPGKAPKLLIYYTSRLHSGVPSRFSGSGSGTDFTFTISSLQPEDIATYYCQQGNTLPYTFGQGTKVEIK
notes: copies: 2 + 2
For B7, the relative binding activity in the test with human FcγRIIa type R was 174 relative (IL6R-BF648/IL6R-L = 100); with human FcγRIIIa type V it was 114 relative (IL6R-BF648/IL6R-L = 100); in the test with human FcγRIIa type H it was 151 relative (IL6R-BF648/IL6R-L = 100); with human FcγRIIb it was 137 relative (IL6R-BF648/IL6R-L = 100); with human FcγRIa, 41 relative (IL6R-BF648/IL6R-L = 100).

For the origin of these results see patent US20230257470A1 (published 2023).
